These results are taken from publication doi:10.1101/2025.05.01.651538.

What is called Kd is a measure of binding affinity in units of concentration.

The test system of data set [1] is KDM5ACAT. In words: EMSA. As to conditions: Nucleosome EMSA: 100 nM nucleosome, 50 mM HEPES pH 7.5, 50 mM KCl, 1 mM BME, 0.01% Tween-20, 0.01% BSA, 5% sucrose, 1 h on ice, DNA EMSA: 100 nM DNA, TE ….
Data set [2] deals with acidic patch mutant (APM) H3K4me3 147bp nucleosome (human).
Data set [3] has the same target. In words: native gel or EMSA; direct binding: 100 nM nucleosome, varying concentrations of KDM5A; 50 mM HEPES pH 7.5, 50 mM KCl, 1 mM BME, 0.01% Tween-20, 0.01% BSA, 5% sucrose; 1 hour on ice; 7.5% gel at 4°C, SYBR gold; fit with Hill slope. On the technique in general: Mobility shift assays separate free from complexed probe on a gel.
In data set [4] the target is acidic patch mutant (APM) unmodified 147bp nucleosome (H2A E61A, E64S, N68A, D72S, N89A, D90A, E91S) (human). Described as above.
For data set [5], the target named is acidic patch mutant (APM) unmodified 147bp nucleosome (H2A E61A, E64S, N68A, D72S, N89A, D90A, E91S). In words: EMSA. As to conditions: 0-32 µM KDM5A^MutR titrated against APM 147bp nucleosome.

KDM5A^CAT (KDM5A 1–801, minimal catalytically active construct), sequence (P29375 1-801): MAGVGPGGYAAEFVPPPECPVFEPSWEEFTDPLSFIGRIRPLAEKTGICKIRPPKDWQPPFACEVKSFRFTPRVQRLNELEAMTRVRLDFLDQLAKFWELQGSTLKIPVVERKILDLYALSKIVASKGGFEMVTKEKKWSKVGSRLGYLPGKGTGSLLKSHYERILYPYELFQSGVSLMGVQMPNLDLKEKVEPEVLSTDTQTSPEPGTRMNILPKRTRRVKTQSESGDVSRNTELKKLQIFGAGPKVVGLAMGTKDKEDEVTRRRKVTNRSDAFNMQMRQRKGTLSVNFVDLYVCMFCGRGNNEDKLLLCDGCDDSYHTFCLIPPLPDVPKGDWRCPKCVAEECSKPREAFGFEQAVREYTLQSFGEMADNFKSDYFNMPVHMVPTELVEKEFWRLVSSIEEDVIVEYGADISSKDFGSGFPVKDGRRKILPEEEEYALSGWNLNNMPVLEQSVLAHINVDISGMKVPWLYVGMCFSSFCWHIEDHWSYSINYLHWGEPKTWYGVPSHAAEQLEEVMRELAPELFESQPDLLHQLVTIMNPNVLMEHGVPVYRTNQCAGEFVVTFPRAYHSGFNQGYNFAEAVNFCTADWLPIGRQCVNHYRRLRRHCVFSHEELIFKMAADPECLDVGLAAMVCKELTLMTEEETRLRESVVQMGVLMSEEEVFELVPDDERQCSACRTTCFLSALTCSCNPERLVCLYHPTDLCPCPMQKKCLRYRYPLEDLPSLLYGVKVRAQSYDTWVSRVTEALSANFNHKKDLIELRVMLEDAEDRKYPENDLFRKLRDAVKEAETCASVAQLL

147bp APM nucleosome, unmodified showed a binding signal in data set [1] (H2A E61A;E64S;N68A;D72S;N89A;D90A;E91S, scale: fold loss in affinity vs wild-type 147bp nucleosome) of 3.
For 147bp nucleosome, wild-type unmodified, the binding signal in data set [1] (scale: fold higher affinity than APM 147bp nucleosome) amounted to 3.
For the substance H3K4me3 APM nucleosome, in data set [1] (H3K4me3, H2A E61A;E64S;N68A;D72S;N89A;D90A;E91S, scale: fold lower affinity vs wild-type H3K4me3 nucleosome), the binding signal stood at 2.
On to “KDM5A^CAT (KDM5A 1–801, minimal catalytically active construct) (from UniProt P29375 1-801) (domain or fragment)”, for which, in data set [2], the fold decrease in demethylation of H3K4me3 on APM 147bp nucleosomes relative to wild-type nucleosomes, western blot, single turnover (5 μM KDM5A enzyme, 50 nM substrate) is 9 fold. In data set [3], this substance gave a fold lower affinity relative to wild-type H3K4me3 nucleosome of 2 fold. In data set [4], this substance returned a fold loss in affinity relative to wild-type 147bp nucleosome of 3 fold.
“KDM5A^CAT (KDM5A 1–801, minimal catalytically active construct) (from UniProt P29375) R210A; R217A; R219A; R220A; R232A; R264A; R265A; R266A; R271A; R280A; R282A” showed a Kd in data set [5] of 14 µM.
